# In article PMC10916880 (Molecular Biology of the Cell, 2024):
# B1: truncated mouse Kif21a-917 fused to GFP (domain or fragment, UniProt Q9QXL2 1-917, looked up)
# chain: MLGAADESSVRVAVRIRPQLAKEKIEGCHICTSVTPGEPQVFLGKDKAFTFDYVFDIDSQQEQIYTQCIEKLIEGCFEGYNATVFAYGQTGAGKTYTMGTGFDVNIMEEEQGIISRAVRHLFKSIDEKKTSAIKNGLPPPEFKVNAQFLELYNEEVLDLFDTTRDIDAKNKKSNIRIHEDSTGGIYTVGVTTRTVNTEPEMMQCLKLGALSRTTASTQMNVQSSRSHAIFTIHVCQTRVCPQTDAENATDNKLISESSPMNEFETLTAKFHFVDLAGSERLKRTGATGERAKEGISINCGLLALGNVISALGDKSKRATHVPYRDSKLTRLLQDSLGGNSQTIMIACVSPSDRDFMETLNTLKYANRARNIKNKVMVNQDRASQQINALRSEITRLQMELMEYKTGKRIIDEEGVESINDMFHENAMLQTENNNLRVRIKAMQETVDALRARITQLVSEQANQVLARAGEGNEEISNMIHSYIKEIEDLRAKLLESEAVNENLRKNLTRATARSPYFSASSAFSPTILSSDKETIEIIDLAKKDLEKLKRKEKKKKKRLQKLEESGREERSVAGKDDNADTDQEKKEEKGVSEKENNELDVEENQEVSDHEDEEEEEEDEEEEDDIEGEESSDESDSESDEKANYQADLANITCEIAIKQKLIDELENSQKRLQTLKKQYEEKLMMLQHKIRDTQLERDQVLQNLGSVESYSEEKAKKVKCEYEKKLHAMNKELQRLQTAQKEHARLLKNQSQYEKQLKKLQQDVMEMKKTKVRLMKQMKEEQEKARLTESRRNREIAQLKKDQRKRDHQLRLLEAQKRNQEVVLRRKTEEVTALRRQVRPMSDKVAGKVTRKLSSSESPAPDTGSSAASGEADTSRPGTQQKMRIPVARVQALPTPTTNGTRKKYQRKGFTGRVFT
# B2: full-length mouse Kif21a fused to GFP (natural protein, UniProt Q9QXL2 1-1672, looked up)
# chain: MLGAADESSVRVAVRIRPQLAKEKIEGCHICTSVTPGEPQVFLGKDKAFTFDYVFDIDSQQEQIYTQCIEKLIEGCFEGYNATVFAYGQTGAGKTYTMGTGFDVNIMEEEQGIISRAVRHLFKSIDEKKTSAIKNGLPPPEFKVNAQFLELYNEEVLDLFDTTRDIDAKNKKSNIRIHEDSTGGIYTVGVTTRTVNTEPEMMQCLKLGALSRTTASTQMNVQSSRSHAIFTIHVCQTRVCPQTDAENATDNKLISESSPMNEFETLTAKFHFVDLAGSERLKRTGATGERAKEGISINCGLLALGNVISALGDKSKRATHVPYRDSKLTRLLQDSLGGNSQTIMIACVSPSDRDFMETLNTLKYANRARNIKNKVMVNQDRASQQINALRSEITRLQMELMEYKTGKRIIDEEGVESINDMFHENAMLQTENNNLRVRIKAMQETVDALRARITQLVSEQANQVLARAGEGNEEISNMIHSYIKEIEDLRAKLLESEAVNENLRKNLTRATARSPYFSASSAFSPTILSSDKETIEIIDLAKKDLEKLKRKEKKKKKRLQKLEESGREERSVAGKDDNADTDQEKKEEKGVSEKENNELDVEENQEVSDHEDEEEEEEDEEEEDDIEGEESSDESDSESDEKANYQADLANITCEIAIKQKLIDELENSQKRLQTLKKQYEEKLMMLQHKIRDTQLERDQVLQNLGSVESYSEEKAKKVKCEYEKKLHAMNKELQRLQTAQKEHARLLKNQSQYEKQLKKLQQDVMEMKKTKVRLMKQMKEEQEKARLTESRRNREIAQLKKDQRKRDHQLRLLEAQKRNQEVVLRRKTEEVTALRRQVRPMSDKVAGKVTRKLSSSESPAPDTGSSAASGEADTSRPGTQQKMRIPVARVQALPTPTTNGTRKKYQRKGFTGRVFTSKTARMKWQLLERRVTDIIMQKMTISNMEADMNRLLRQREELTKRREKLSKRREKIVKESGEGDKSVANIIEEMESLTANIDYINDSIADCQANIMQMEEAKEEGETLDVTAVINACTLTEARYLLDHFLSMGINKGLQAAQKEAQIKVLEGRLKQTEITSATQNQLLFHMLKEKAELNPELDALLGHALQDLDGAPPENEEDSSEEDGPLHSPGSEGSTLSSDLMKLCGEVKPKNKARRRTTTQMELLYADSSEVASDTSAGDASLSGPLAPVAEGQEIGMNTETSGTSARDKELLAPSGLPSKIGSISRQSSLSEKKVPEPSPVTRRKAYEKADKPKAKEHKHSDSGASETSLSPPSSPPSRPRNELNVFNRLTVPQGTPSVQQDKSDESDSSLSEVHRGIINPFPACKGVRASPLQCVHIAEGHTKAVLCVDSTDDLLFTGSKDRTCKVWNLVTGQEIMSLGVHPNNVVSVKYCNYTSLVFTVSTSYIKVWDIRESAKCIRTLTSSGQVTLGEACSASTSRTVAIPSGESQINQIALNPTGTFLYAASGNAVRMWDLKRFQSTGKLTGHLGPVMCLTVDQISNGQDLIITGSKDHYIKMFDVTEGALGTVSPTHNFEPPHYDGIEALAIQGDNLFSGSRDNGIKKWDLAQKGLLQQVPNAHKDWVCALGLVPGHPVLLSGCRGGILKLWNVDTFVPVGEMRGHDSPINAICVNSTHVFTAADDRTVRIWKAHNLQDGQLSDTGDLGEDIASN
# What was measured:
# [1] = target: microtubules assembled from purified beta-R380C yeast tubulin (Tub1/Tub2-R380C) (yeast, UniProt P09733 1-447; P02557 1-457, R380C); experiment: single-molecule TIRF microscopy of kinesin-GFP on surface-attached microtubules
# [2] = target: microtubules assembled from purified wildtype yeast tubulin (Tub1/Tub2 heterodimer) (yeast, UniProt P09733 1-447; P02557 1-457); experiment: as above
Binder,increase in binding frequency relative to wildtype microtubules [1] [%],increase in plus-end dwell time relative to wildtype microtubules [1] [%],"plus-end dwell time relative to wildtype microtubules, high salt [1] [fold]",fold increase in binding relative to full-length Kif21a [2] [fold],plus-end dwell time relative to wildtype microtubules [1] [fold]
B1,31,45,~2,~100,–
B2,29,–,–,–,2
